The assay deals with bacterially expressed full-length chicken CRP1 (chicken) (UniProt P67966). Kind of assay: radioligand binding.

By Kd is commonly meant the equilibrium constant for the complex coming apart. Read a high Kd as weaker binding.

Chain of UniProt P67966 (P67966 whole entry): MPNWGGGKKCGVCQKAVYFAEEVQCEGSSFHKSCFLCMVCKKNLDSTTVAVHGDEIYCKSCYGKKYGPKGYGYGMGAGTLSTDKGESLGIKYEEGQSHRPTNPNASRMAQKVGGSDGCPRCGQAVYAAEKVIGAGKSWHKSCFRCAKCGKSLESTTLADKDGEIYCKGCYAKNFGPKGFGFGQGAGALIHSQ

“α-actinin (avian smooth muscle) (from UniProt P05094 1-893) (natural protein)” displayed a Kd of 1.8 µM and a cpm bound specifically (0.26 pmoles [125I]α-actinin in 120 μl, no competitor) of 3080 cpm.

Values taken from paper PMC2139825.
